# Measured values from patent publication US20210364527A1 (QUANTUM SI, published 2021).
# Primed or numbered codes have the meaning given here. Ends that are not written are not given here. FITC′ = not defined here
# B1: KA peptide KAKLDEESILKQK (XAKLDEESILKQK, X = K) (peptide)
# peptide: KAKLDEESILKQK
# notes: Biolayer interferometry single-point screen of UBR-box homologs
# B2: FITC-labeled YA peptide YAKLDEESILKQK-FITC (peptide)
# peptide: YAKLDEESILKQK-{FITC′}
# B3: FITC-labeled LA peptide LAKLDEESILKQK-FITC (peptide)
# peptide: LAKLDEESILKQK-{FITC′}
# B4: PS693 (Bis-PS528, Linker 1) (designed binder)
# chain: MHSKFNHAGRICGAKFRVGEPIYRCKECSFDDTCVLCVNCFNPKDHVGHHVYTSICTEFNNGICDCGDKEAWNHELNCKGAEDGGGSGGGSGGGSGMHSKFNHAGRICGAKFRVGEPIYRCKECSFDDTCVLCVNCFNPKDHVGHHVYTSICTEFNNGICDCGDKEAWNHELNCKGAEDGGSHHHHHHHHHHGGGSGGGSGGGSGLNDFFEAQKIEWHEGGGSGGGSGGGSGLNDFFEAQKIEWHE
# notes: Single polypeptide; the entry includes the C-terminal His/bis-biotinylation tag
# B5: HA peptide HAKLDEESILKQK (XAKLDEESILKQK, X = H) (peptide)
# peptide: HAKLDEESILKQK
# notes: as for B1
# B6: PS694 (Bis-PS528, Linker 2) (designed binder)
# chain: MHSKFNHAGRICGAKFRVGEPIYRCKECSFDDTCVLCVNCFNPKDHVGHHVYTSICTEFNNGICDCGDKEAWNHELNCKGAEDGSAGSAAGSGEFMHSKFNHAGRICGAKFRVGEPIYRCKECSFDDTCVLCVNCFNPKDHVGHHVYTSICTEFNNGICDCGDKEAWNHELNCKGAEDGGSHHHHHHHHHHGGGSGGGSGGGSGLNDFFEAQKIEWHEGGGSGGGSGGGSGLNDFFEAQKIEWHE
# notes: as for B4
# B7: PS692 (Bis-PS621, Linker 3) (designed binder)
# chain: MHSKFSHAGRICGAKFKVGEPIYRCKECSFDDTCVLCVNCFNPKDHTGHHVYTTICTEFNNGICDCGDKEAWNHTLFCKAEEGGSAGSAAGSGEFGSAGSAAGSGEFGSAGSAAGSGEFMHSKFSHAGRICGAKFKVGEPIYRCKECSFDDTCVLCVNCFNPKDHTGHHVYTTICTEFNNGICDCGDKEAWNHTLFCKAEEGGGSHHHHHHHHHHGGGSGGGSGGGSGLNDFFEAQKIEWHEGGGSGGGSGGGSGLNDFFEAQKIEWHE
# notes: as for B4
# B8: FITC-labeled VA peptide VAKLDEESILKQK-FITC (peptide)
# peptide: VAKLDEESILKQK-{FITC′}
# B9: FITC-labeled WA peptide WAKLDEESILKQK-FITC (peptide)
# peptide: WAKLDEESILKQK-{FITC′}
# B10: PS691 (Bis-PS621, Linker 2) (designed binder)
# chain: MHSKFSHAGRICGAKFKVGEPIYRCKECSFDDTCVLCVNCFNPKDHTGHHVYTTICTEFNNGICDCGDKEAWNHTLFCKAEEGGSAGSAAGSGEFMHSKFSHAGRICGAKFKVGEPIYRCKECSFDDTCVLCVNCFNPKDHTGHHVYTTICTEFNNGICDCGDKEAWNHTLFCKAEEGGGSHHHHHHHHHHGGGSGGGSGGGSGLNDFFEAQKIEWHEGGGSGGGSGGGSGLNDFFEAQKIEWHE
# notes: as for B4
# B11: Brachionus plicatilis UBR-box domain (PS505) (other)
# chain: MVCGRVFKSGEPSYFCRECGTDPTCVLCSICFRHSKHRYHKYVMMTSGGGGYCDCGDPEAWKSDPCCELHMP
# B12: Agrobacterium tumifaciens ClpS1 (atClpS1) (other)
# chain: MIAEPICMQGEGDGEDGGTNRGTSVITRVKPKTKRPNLYRVLLLNDDYTPMEFVIHILERFFQKDREAATRIMLHVHQHGVGECGVFTYEVAETKVSQVMDFARQHQHPLQCVMEKK
# notes: also called A. tumefaciens ClpS1; atClpS1 (WT)
# B13: FITC-labeled FA peptide FAKLDEESILKQK-FITC (peptide)
# peptide: FAKLDEESILKQK-{FITC′}
# B14: RA peptide RAKLDEESILKQK (XAKLDEESILKQK, X = R) (peptide)
# peptide: RAKLDEESILKQK
# notes: as for B1
# B15: FITC-labeled IA peptide IAKLDEESILKQK-FITC (peptide)
# peptide: IAKLDEESILKQK-{FITC′}
# B16: PS370 (other)
# chain: MFNSLGTVLDPKKSKAKYPEARVIVLDDNFNTFQHVANCLLAIIPRMCEQRAWDLTIKVDKAGSAEVWRGNLEQAELYHEQLFSKGLTMAPIEKT
# B17: PS690 (Bis-PS621, Linker 1) (designed binder)
# chain: MHSKFSHAGRICGAKFKVGEPIYRCKECSFDDTCVLCVNCFNPKDHTGHHVYTTICTEFNNGICDCGDKEAWNHTLFCKAEEGGGGSGGGSGGGSGMHSKFSHAGRICGAKFKVGEPIYRCKECSFDDTCVLCVNCFNPKDHTGHHVYTTICTEFNNGICDCGDKEAWNHTLFCKAEEGGGSHHHHHHHHHHGGGSGGGSGGGSGLNDFFEAQKIEWHEGGGSGGGSGGGSGLNDFFEAQKIEWHE
# notes: as for B4
# B18: PS695 (Bis-PS528, Linker 3) (designed binder)
# chain: MHSKFNHAGRICGAKFRVGEPIYRCKECSFDDTCVLCVNCFNPKDHVGHHVYTSICTEFNNGICDCGDKEAWNHELNCKGAEDGSAGSAAGSGEFGSAGSAAGSGEFGSAGSAAGSGEFMHSKFNHAGRICGAKFRVGEPIYRCKECSFDDTCVLCVNCFNPKDHVGHHVYTSICTEFNNGICDCGDKEAWNHELNCKGAEDGGSHHHHHHHHHHGGGSGGGSGGGSGLNDFFEAQKIEWHEGGGSGGGSGGGSGLNDFFEAQKIEWHE
# notes: as for B4
# B19: PS371 (other)
# chain: MATETIERPRTRDPGSGLGGHWLVIVLNDDHNTFDHVAKTLARVIPGVTVDDGYRFADQIHQRGQAIVWRGPKEPAEHYWEQLQDAGLSMAPLERH
# Key:
# [1] = target: T1, Saccharomyces cerevisiae UBR-box domain (PS538) (Saccharomyces cerevisiae, UniProt P19812 113-194); assay: biolayer interferometry single-point screen, 30 C
# T1 sequence: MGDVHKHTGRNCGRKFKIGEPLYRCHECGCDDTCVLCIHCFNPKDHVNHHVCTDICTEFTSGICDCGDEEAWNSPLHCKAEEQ
# [2] = target: T2, Kluyveromyces lactis UBR-box domain (PS528) (Kluyveromyces lactis, UniProt O60014 101-182); assay: biolayer interferometry single-point screen, 30 C
# T2 construct: UBR-streptavidin complex in fluorescence polarization
# T2 sequence: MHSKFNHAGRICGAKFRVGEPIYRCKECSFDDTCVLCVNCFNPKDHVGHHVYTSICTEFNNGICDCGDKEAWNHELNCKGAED
# [3] = target: T3, Mus musculus UBR-box domain (PS535) (Mus musculus, UniProt Q6WKZ8 98-168); assay: biolayer interferometry single-point screen, 30 C
# T3 sequence: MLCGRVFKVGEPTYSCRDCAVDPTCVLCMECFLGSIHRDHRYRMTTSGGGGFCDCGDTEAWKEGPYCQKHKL
# [4] = target: T4, ClpS from Thermosynochoccus elongatus (teClpS) (Thermosynechococcus elongatus, UniProt Q8DJY3 6-94); assay: fluorescence polarization, FITC-peptide with ClpS:streptavidin complex, 23 C
# T4 construct: Dye-labelled or streptavidin-complexed depending on the assay; also called Thermosynechococcus elongatus ClpS
# T4 sequence: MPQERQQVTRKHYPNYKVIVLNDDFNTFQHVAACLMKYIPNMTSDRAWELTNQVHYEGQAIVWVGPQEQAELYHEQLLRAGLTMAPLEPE
# [5] = target: T5, RA peptide (N-terminal arginine, penultimate alanine; rest of sequence not given); assay: fluorescence polarization
# T5 peptide: RAKLDEESILKQK-{FITC′}
# [6] = target: T4, ClpS from Thermosynochoccus elongatus …; assay: fluorescence polarization, single point
# [7] = target: B14; assay: BLI heatmap, single-point screen
# [8] = target: T6, YA peptide (N-terminal tyrosine, penultimate alanine; rest of sequence not given); assay: binder-on-chip single-molecule assay; parameters: unit not given here
# T6 construct: they may differ; also called tyrosine peptide
# [9] = target: T7, WA peptide (N-terminal tryptophan, penultimate alanine; rest of sequence not given); assay: binder-on-chip single-molecule assay; parameters: unit not given here
# T7 construct: they may differ; also called tryptophan peptide
# [10] = target: T8, FA peptide (N-terminal phenylalanine, penultimate alanine; rest of sequence not given); assay: binder-on-chip single-molecule assay; parameters: unit not given here
# T8 construct: they may differ; Dye- or FITC-labelled in some assays; also called phenylalanine peptide; N-terminal FA peptide
# [11] = target: LF peptide (N-terminal LF; rest of sequence not given); assay: binder-on-chip single-molecule assay; parameters: unit not given here
# [12] = target: T9, VA peptide VAKLDEESILKQK (XAKLDEESILKQK, X = V); assay: biolayer interferometry, response against 1/kdis
# T9 construct: Immobilized on the biolayer interferometry sensor
# T9 peptide: VAKLDEESILKQK
# [13] = target: T10, IA peptide IAKLDEESILKQK (XAKLDEESILKQK, X = I); assay: biolayer interferometry, response against 1/kdis
# T10 construct: Immobilized on the biolayer interferometry sensor
# T10 peptide: IAKLDEESILKQK
# [14] = target: T11, MA; assay: biolayer interferometry, response against 1/kdis
# T11 chain: MAKLDEESILKQK
# [15] = target: B13; assay: fluorescence polarization, single point
# [16] = target: B15; assay: fluorescence polarization, single point
# [17] = target: B9; assay: fluorescence polarization, single point
# [18] = target: B2; assay: fluorescence polarization, single point
# [19] = target: B3; assay: fluorescence polarization, single point
# [20] = target: T9, VA peptide VAKLDEESILKQK …; assay: BLI heatmap
# [21] = target: T10, IA peptide IAKLDEESILKQK …; assay: BLI heatmap
# [22] = target: B8; assay: fluorescence polarization, single point
# [23] = target: T12, LA peptide LAKLDEESILKQK (XAKLDEESILKQK, X = L); assay: BLI heatmap
# T12 construct: Immobilized on the biolayer interferometry sensor
# T12 peptide: LAKLDEESILKQK
# [24] = target: T13, F peptide FAKLDEESILKQK (XAKLDEESILKQK, X = F); assay: BLI heatmap
# T13 construct: Immobilized on the biolayer interferometry sensor
# T13 peptide: FAKLDEESILKQK
# [25] = target: T14, Y peptide YAKLDEESILKQK (XAKLDEESILKQK, X = Y); assay: BLI heatmap
# T14 construct: Immobilized on the biolayer interferometry sensor
# T14 peptide: YAKLDEESILKQK
binder,measurement,setting,value
B1,binding result,[1],binds
same,binding result,[2],binds
same,binding result,[3],binds
B2,binding result,[4],binds
B3,binding result,[4],binds
B4,Kd,[5],263 nM
B5,binding result,[2],binds
B6,Kd,[5],353 nM
B7,Kd,[5],478 nM
B8,binding result,[6],no binding
B9,binding result,[4],binds
B10,Kd,[5],369 nM
B11,binding result,[7],binds
B12,Mean pulse width,[8],0.77
same,Median PW,[8],0.4
same,Mean pulse width,[9],0.39
same,Median PW,[9],0.24
same,Mean pulse width,[10],0.66
same,Median PW,[10],0.36
same,Mean pulse width,[11],0.3
same,Median PW,[11],0.18
same,binding result,[12],no binding
same,binding result,[13],no binding
same,binding result,[14],no binding
B13,binding result,[4],binds
B14,binding result,[1],binds
same,binding result,[2],binds
same,binding result,[3],binds
B15,binding result,[6],no binding
B16,binding result,[15],binds
same,binding result,[16],no binding
same,binding result,[17],binds
same,binding result,[18],binds
same,binding result,[19],binds
same,binding result,[20],no binding
same,binding result,[21],no binding
B17,Kd,[5],354 nM
B18,Kd,[5],317 nM
B19,binding result,[15],binds
same,binding result,[16],no binding
same,binding result,[18],binds
same,binding result,[19],binds
same,binding result,[22],no binding
same,binding result,[23],binds
same,binding result,[24],binds
same,binding result,[25],binds
